Non-standard residues stand in square brackets, D forms with d. No end group written: not given here.
B1: Ac-LLRVKR-NH2 (peptide)
peptide: Ac-LLRVKR-NH2
notes: L-hexapeptide; also called acetylated and amidated LLRVKR
B2: LLRVKR (peptide)
peptide: H-LLRVKR-OH
notes: L-hexapeptide without terminal groups; also called unmodified LLRVKR
B3: Tetra-L-arginine (peptide)
peptide: H-RRRR-OH
notes: no terminal modifications; also called tetramer
B4: Penta-L-arginine (peptide)
peptide: RRRRR
notes: no terminal modifications; also called pentamer; pentameric polyarginine
B5: Hexa-L-arginine (peptide)
peptide: H-RRRRRR-OH
notes: no terminal modifications; also called hexamer
B6: Hepta-L-arginine (peptide)
peptide: RRRRRRR
notes: no terminal modifications; also called heptamer
B7: Octa-L-arginine (peptide)
peptide: RRRRRRRR
notes: no terminal modifications; also called octamer
B8: Nona-L-arginine (peptide)
peptide: RRRRRRRRR
notes: no terminal modifications; also called nonamer

Molecular target: T1, proprotein convertase PC2
T1 sequence (P16519 110-638, species assumed, looked up): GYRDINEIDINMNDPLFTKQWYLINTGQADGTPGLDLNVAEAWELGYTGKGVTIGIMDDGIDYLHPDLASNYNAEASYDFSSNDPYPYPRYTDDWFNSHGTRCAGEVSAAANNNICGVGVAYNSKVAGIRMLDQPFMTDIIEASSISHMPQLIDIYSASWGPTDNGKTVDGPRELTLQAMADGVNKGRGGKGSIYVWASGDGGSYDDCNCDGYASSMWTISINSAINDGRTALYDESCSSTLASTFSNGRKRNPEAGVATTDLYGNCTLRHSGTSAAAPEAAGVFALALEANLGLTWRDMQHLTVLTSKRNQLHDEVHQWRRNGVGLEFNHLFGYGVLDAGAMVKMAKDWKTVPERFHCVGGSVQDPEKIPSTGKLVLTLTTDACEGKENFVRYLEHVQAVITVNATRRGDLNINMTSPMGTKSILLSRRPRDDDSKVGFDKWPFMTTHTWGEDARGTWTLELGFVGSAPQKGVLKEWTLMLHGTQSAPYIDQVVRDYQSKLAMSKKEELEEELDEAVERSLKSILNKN
Experiment: enzyme inhibition, pERTKR-MCA hydrolysis (fluorescence), competitive Ki
From the text: (§1) Each value represents the mean ± S.D. determined from three independent experiments.

Binder | Ki [µM]
Ac-RRKRRR-NH2 [Ac-RRKRRR-NH2] | 461
Ac-HHKRRR-NH2 (L-hexapeptide) [Ac-HHKRRR-NH2] | 235
Ac-HRKRRR-NH2 (L-hexapeptide) [Ac-HRKRRR-NH2] | 309
Ac-KHKRRR-NH2 (L-hexapeptide) [Ac-KHKRRR-NH2] | 280
Ac-KRKRRR-NH2 (L-hexapeptide) [Ac-KRKRRR-NH2] | 391
Ac-MHKRRR-NH2 (L-hexapeptide) [Ac-MHKRRR-NH2] | 216
Ac-RHKRRR-NH2 (L-hexapeptide) [Ac-RHKRRR-NH2] | 152

Molecular target: T2, recombinant truncated mouse furin (mouse, UniProt P23188 108-714, N-glycosylated at two of three potential sites)
T2 construct: extracellular domain; Purified by ion exchange and gel permeation; also called recombinant furin; recombinant mouse furin
T2 sequence (P23188 108-714): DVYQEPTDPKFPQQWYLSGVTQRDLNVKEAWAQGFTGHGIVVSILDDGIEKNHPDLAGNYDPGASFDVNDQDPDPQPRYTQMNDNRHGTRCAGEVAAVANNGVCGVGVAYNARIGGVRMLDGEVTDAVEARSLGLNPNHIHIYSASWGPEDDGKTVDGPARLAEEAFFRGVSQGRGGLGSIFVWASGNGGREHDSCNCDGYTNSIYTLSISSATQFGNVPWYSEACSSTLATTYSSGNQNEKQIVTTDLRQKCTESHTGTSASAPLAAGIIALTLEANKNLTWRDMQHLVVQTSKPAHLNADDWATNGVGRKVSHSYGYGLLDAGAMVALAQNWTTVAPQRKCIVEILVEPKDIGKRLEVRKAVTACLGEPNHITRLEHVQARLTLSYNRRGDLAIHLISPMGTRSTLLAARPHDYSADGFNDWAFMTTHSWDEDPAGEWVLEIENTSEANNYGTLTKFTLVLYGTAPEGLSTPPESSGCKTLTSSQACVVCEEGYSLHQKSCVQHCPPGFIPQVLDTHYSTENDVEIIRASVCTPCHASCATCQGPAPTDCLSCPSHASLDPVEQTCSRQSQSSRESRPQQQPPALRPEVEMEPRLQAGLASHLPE
Experiment: as above
From the text: as §1

Binder | Ki [µM]
Ac-RRKRRR-NH2 [Ac-RRKRRR-NH2] | 1.3
Ac-HHKRRR-NH2 (L-hexapeptide) [Ac-HHKRRR-NH2] | 13.2
Ac-HRKRRR-NH2 (L-hexapeptide) [Ac-HRKRRR-NH2] | 2.1
Ac-KHKRRR-NH2 (L-hexapeptide) [Ac-KHKRRR-NH2] | 5.2
Ac-KRKRRR-NH2 (L-hexapeptide) [Ac-KRKRRR-NH2] | 1.6
Ac-MHKRRR-NH2 (L-hexapeptide) [Ac-MHKRRR-NH2] | 10.3
Ac-MRKRRR-NH2 (L-hexapeptide) [Ac-MRKRRR-NH2] | 2.3
Ac-RHKRRR-NH2 (L-hexapeptide) [Ac-RHKRRR-NH2] | 3.4

Molecular target: T1, proprotein convertase PC2
Experiment: enzyme inhibition, pERTKR-MCA hydrolysis, ratio of Ki

Binder | fold smaller Ki than the unmodified peptide LLRVKR [fold]
B1 | ~4

Molecular target: T2, recombinant truncated mouse furin
Experiment: as above

Binder | fold increase in inhibitory potency against the amidated and acetylated peptide Ac-LLRVKR-NH2 [fold] | fold increase in Ki against the pentamer (penta-L-arginine) [fold] | fold increase in Ki against the hexamer (hexa-L-arginine) [fold]
B2 | 8 | – | –
B3 | – | ~5 | –
B4 | – | – | ~10

Molecular target: T3, proprotein convertase PACE4
T3 construct: Partially purified preparation
T3 sequence (P29122 150-969, species assumed, looked up): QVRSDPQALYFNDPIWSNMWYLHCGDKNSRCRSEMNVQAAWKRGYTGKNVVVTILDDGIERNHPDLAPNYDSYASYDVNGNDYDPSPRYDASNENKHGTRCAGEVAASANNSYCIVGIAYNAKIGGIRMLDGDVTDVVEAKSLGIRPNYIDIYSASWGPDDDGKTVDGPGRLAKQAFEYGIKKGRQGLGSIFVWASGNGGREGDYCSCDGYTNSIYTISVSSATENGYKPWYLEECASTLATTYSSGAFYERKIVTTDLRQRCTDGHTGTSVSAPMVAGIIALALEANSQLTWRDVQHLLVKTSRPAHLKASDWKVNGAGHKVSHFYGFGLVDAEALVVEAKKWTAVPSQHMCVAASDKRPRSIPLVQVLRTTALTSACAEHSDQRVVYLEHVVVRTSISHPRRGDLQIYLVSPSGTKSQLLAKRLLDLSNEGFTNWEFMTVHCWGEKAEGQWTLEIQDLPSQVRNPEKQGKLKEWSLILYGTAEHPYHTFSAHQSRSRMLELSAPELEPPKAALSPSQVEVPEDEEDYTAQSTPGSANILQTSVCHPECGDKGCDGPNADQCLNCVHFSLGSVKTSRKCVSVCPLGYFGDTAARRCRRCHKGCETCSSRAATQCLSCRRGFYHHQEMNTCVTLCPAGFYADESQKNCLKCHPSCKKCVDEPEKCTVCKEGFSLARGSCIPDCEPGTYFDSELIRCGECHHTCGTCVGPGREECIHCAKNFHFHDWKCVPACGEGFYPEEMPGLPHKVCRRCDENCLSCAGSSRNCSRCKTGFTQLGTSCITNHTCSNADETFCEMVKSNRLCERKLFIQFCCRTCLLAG
Experiment: as above

Binder | ratio of Ki to that of the hexamer (SEQ ID NO 14) [fold]
B4 | ~2

Molecular target: T4, proprotein convertase PC1
T4 construct: also called PC3
T4 sequence (P63239 111-753): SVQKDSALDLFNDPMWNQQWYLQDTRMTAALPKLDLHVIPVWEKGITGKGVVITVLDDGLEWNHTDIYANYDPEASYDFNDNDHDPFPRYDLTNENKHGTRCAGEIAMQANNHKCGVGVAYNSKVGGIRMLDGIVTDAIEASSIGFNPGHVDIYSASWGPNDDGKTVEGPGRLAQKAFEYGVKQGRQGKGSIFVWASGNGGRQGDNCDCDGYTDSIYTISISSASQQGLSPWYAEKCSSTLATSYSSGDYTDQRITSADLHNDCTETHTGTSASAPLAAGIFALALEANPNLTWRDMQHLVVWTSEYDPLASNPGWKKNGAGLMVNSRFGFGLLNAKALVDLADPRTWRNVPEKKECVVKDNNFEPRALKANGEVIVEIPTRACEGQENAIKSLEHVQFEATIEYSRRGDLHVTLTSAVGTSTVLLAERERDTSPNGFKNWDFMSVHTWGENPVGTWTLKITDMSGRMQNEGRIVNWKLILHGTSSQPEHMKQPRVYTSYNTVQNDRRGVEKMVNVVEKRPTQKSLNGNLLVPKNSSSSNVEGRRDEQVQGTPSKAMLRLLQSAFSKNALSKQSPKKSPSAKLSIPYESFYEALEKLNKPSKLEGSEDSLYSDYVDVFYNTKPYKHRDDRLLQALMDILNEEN
Experiment: as above

Binder | fold increase in Ki against hexa-L-arginine [fold]
[dR][dR][dR][dR][dR][dR] (also called D6R; D-hexa-arginine) [Hexa-D-arginine] | 3

Molecular target: T1, proprotein convertase PC2
Experiment: enzyme inhibition, pERTKR-MCA hydrolysis (fluorescence), competitive Ki
Remark: another data set of the same source
From the text: (§2) The Effect of N-Terminal Acetyl and C-Terminal Amide Groups on Inhibition. We also examined the effect of the terminal acetyl and amide modifications on inhibitory potency.
as §1

Binder | Ki [µM]
H-LLRVKR-NH2 (L-hexapeptide, free N-terminus) [LLRVKR-NH2] | 2.3
Ac-LLRVKR-OH (L-hexapeptide, free C-terminus) [Ac-LLRVKR] | 1.3
B1 | 1
B2 | 3.7

Molecular target: T2, recombinant truncated mouse furin
Experiment: as above
Remark: another data set of the same source
From the text: as §2, §1

Binder | Ki [µM]
H-LLRVKR-NH2 (L-hexapeptide, free N-terminus) [LLRVKR-NH2] | 0.8
Ac-LLRVKR-OH (L-hexapeptide, free C-terminus) [Ac-LLRVKR] | 3.5
B1 | 3.4
B2 | 0.42

Molecular target: T2, recombinant truncated mouse furin
Experiment: as above
Remark: another data set of the same source
From the text: (§3) Inhibition of Furin, PACE4, PC1 and PC2 by Different L-Polyarginine Peptides.
as §1

Binder | Ki [µM]
[dR][dR][dR][dR][dR][dR] (also called D6R; D-hexa-arginine) [Hexa-D-arginine] | 0.106
B5 | 0.114
B3 | 6.4
B4 | 0.99
B6 | 0.068
B7 | 0.061
B8 | 0.042

Molecular target: T3, proprotein convertase PACE4
Experiment: as above
From the text: as §3, §1

Binder | Ki [µM]
[dR][dR][dR][dR][dR][dR] (also called D6R; D-hexa-arginine) [Hexa-D-arginine] | 0.58
B5 | 0.52
B3 | > 200
B4 | 0.98
B6 | 0.24
B7 | 0.15
B8 | 0.11

Molecular target: T4, proprotein convertase PC1
Experiment: as above
From the text: as §3, §1

Binder | Ki [µM]
[dR][dR][dR][dR][dR][dR] (also called D6R; D-hexa-arginine) [Hexa-D-arginine] | 13
B5 | 3.9
B3 | > 200
B4 | 14
B6 | 5.2
B7 | 5.1
B8 | 12
